Measurements: paper PMC5693944
Each block holds one substance with its values, some of them ahead of it.

Experiments:
Assay in all cases: SEC-MALS
[1] = biological target: Ml1 protein from Mesorhizobium loti (Mesorhizobium loti)
[2] = biological target: Ml2 protein from Mesorhizobium loti (Mesorhizobium loti)
[3] = biological target: MucR from Brucella abortus (Brucella abortus 2308)

stoichiometry N [1]: 10.4
Substance: Ml1 protein from Mesorhizobium loti (natural protein)

stoichiometry N [2]: 9.96
Substance: Ml2 protein from Mesorhizobium loti (natural protein)

Substance: MucR from Brucella abortus (natural protein)
stoichiometry N [3]: 10.4
